This is an account of results in patent publication US20210101998A1 (Pfizer, published 2021).

Read-outs that look alike come from different tables or passages of the source.

In assay [1] the target is T1, humTFPI K1K2 (human).
T1 construct: Biotinylated on the AviTag for ELISA; also called Human TFPIα K1K2; humTFPI K1K2-aviHis10
Description: SPR, antibody ligand, TFPI analyte.
Description: (§1) The flow cells were activated by injecting a 1:1 mixture of 400 mM 1-Ethyl-3-(3-dimethylaminopropyl) carbodiimide hydrochloride (EDC) and N-hydroxysuccinimide (NHS) for 7 minutes at a flow rate of 10 μl/minute. Anti-human IgG antibody was diluted to 25 μg/ml in 10 mM Sodium Acetate pH 5.0 and injected over all flow cells for 7 minutes at 10 ul/minute. All flow cells were blocked with 1 M Ethanolamine-HCL (ETH) for 7 minutes at 10 μl/minute. Final immobilization level of the capture antibody was approximately 10,000 resonance units (RU). The running buffer for immobilization and kinetics was 10 mM HEPES pH 7.4, 150 mM NaCl, 3 mM EDTA, 0.05% (v/v) Tween-20 (HBS-EP+). […] Flow cell 1 was used as a reference surface. […] At the end of each cycle, the entire anti-IgG surface was regenerated by a 60 second pulse of 3 M MgCl2. Kinetic assays were conducted at 25° C. at a collection rate of 10 Hz on a BIAcore T200 instrument (GE Healthcare). Rate constants and affinities were determined by fitting the data to a 1:1 model in BIAcore T200 Evaluation software version 1.0 (GE).

Assay [2] deals with T2, rabTFPI K1K2 (rabbit, limits assumed).
T2 construct: also called Rabbit TFPI K1K2; rabbit TFPI
T2 chain: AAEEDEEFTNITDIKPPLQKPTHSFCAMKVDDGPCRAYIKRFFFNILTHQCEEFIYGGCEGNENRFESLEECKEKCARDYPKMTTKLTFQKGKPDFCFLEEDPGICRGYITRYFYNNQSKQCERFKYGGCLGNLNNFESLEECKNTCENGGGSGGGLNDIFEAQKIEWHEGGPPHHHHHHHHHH
Description: SPR, antibody ligand, TFPI analyte.
Description: as §1

For assay [3], the target named is T1, humTFPI K1K2. Description: ELISA, biotinylated TFPI on streptavidin plate.
In assay [4] the target is T2, rabTFPI K1K2. Description: ELISA, biotinylated TFPI on streptavidin plate.
Assay [5] concerns the target T1, humTFPI K1K2. Description: cell-based or functional assay.
Assay [6] addresses T1, humTFPI K1K2. As to the kind of experiment: SPR, antibody ligand, TFPI analyte. This is another data set of the same source. Background: SPR reads the build-up and loss of mass on a sensor chip optically.
For assay [7], the target named is T3, murTFPI K1K2 (mouse).
T3 construct: also called Mouse TFPI K1K2; mouse TFPI
T3 chain: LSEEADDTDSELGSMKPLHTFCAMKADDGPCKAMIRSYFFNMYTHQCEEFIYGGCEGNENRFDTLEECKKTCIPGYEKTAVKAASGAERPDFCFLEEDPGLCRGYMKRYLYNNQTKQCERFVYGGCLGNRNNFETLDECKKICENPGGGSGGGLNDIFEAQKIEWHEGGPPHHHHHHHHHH
As to the kind of experiment: SPR, antibody ligand, TFPI analyte.

The target of assay [8] is T1, humTFPI K1K2. Description: SPR, antibody ligand, TFPI analyte. This is another data set of the same source.
Description: as §1

B1: mu-hu 4D8 chimera (antibody, human IgG1, kappa)
light: DIVMTQSHKFMSTSVGDRVSITCKASQDVHTAVAWYQQKPGQSPRLLIYWASTRHTGVPDRFTGCGSGTDYTLTISSVQAEDLALYYCQQHYTTPYTFGGGTKLEMKRTVAAPSVFIFPPSDEQLKSGTASVVCLLNNFYPREAKVQWKVDNALQSGNSQESVTEQDSKDSTYSLSSTLTLSKADYEKHKVYACEVTHQGLSSPVTKSFNRGEC
heavy: EVLLQQSGPELVKPGASVKIPCKASGYTFTDYNLDWVKQSHGKSLEWIGDINPINGATLYNQKFKGKATLTVDQSSSTAYMELRSLTSEDTAVYYCSIYYGDYDAMDYWGQGASVTVSSASTKGPSVFPLAPSSKSTSGGTAALGCLVKDYFPEPVTVSWNSGALTSGVHTFPAVLQSSGLYSLSSVVTVPSSSLGTQTYICNVNHKPSNTKVDKKVEPKSCDKTHTCPPCPAPEAAGAPSVFLFPPKPKDTLMISRTPEVTCVVVDVSHEDPEVKFNWYVDGVEVHNAKTKPREEQYNSTYRVVSVLTVLHQDWLNGKEYKCKVSNKALPAPIEKTISKAKGQPREPQVYTLPPSREEMTKNQVSLTCLVKGFYPSDIAVEWESNGQPENNYKTTPPVLDSDGSFFLYSKLTVDKSRWQQGNVFSCSVMHEALHNHYTQKSLSLSPG
notes: Mouse variable regions on human IgG1 3M and human kappa; also called hu-mu 4D8 chimera; mouse-human chimeric antibody 4D8
Broadly, the Kd is the free concentration of one partner at which half of the binding sites on the other are occupied at equilibrium, for simple one-to-one binding. A high value points to weaker binding. One may read the koff as a measure of how fast the partners let go of each other. A low value points to a long-lived complex. As usually defined, the kon is a measure of how fast the partners come together. Higher therefore signals fast association. For orientation: EC50 means the concentration giving half of the maximal effect. Take B1: in assay [1], the dissociation constant (Kd) came out at 1.19 nM, the off-rate constant (koff) was found to be 0.00114 s⁻¹ and the kon came out at 958000 M⁻¹ s⁻¹. In assay [2], this molecule gave a Kd of 0.63 nM, a koff of 0.00126 s⁻¹ and an on-rate (kon) of 2.01e+06 M⁻¹ s⁻¹. Further, the EC50 in assay [3] is 0.0577 nM. In assay [4], this molecule gave an EC50 of 0.068 nM.

B2: TFPI-23 (antibody, human IgG1, lambda)
light: QSVLTQPPSVSGAPGQRVTISCTGSSSNIGAGYDVHWYQQLPGTAPKLLIYGNSNRPSGVPDRFSGSKSGTSASLAITGLQAEDEADYYCQSYDSSLSGSGVFGGGTKLTVLGQPKAAPSVTLFPPSSEELQANKATLVCLISDFYPGAVTVAWKADSSPVKAGVETTTPSKQSNNKYAASSYLSLTPEQWKSHRSYSCQVTHEGSTVEKTVAPTECS
heavy: not shown
notes: Human IgG1-3M from phage display; also called mAb-TFPI-23; clone 23
On to B2, for which the “FXa EC50” value in assay [5] was 46 nM. For the same molecule, in assay [5], the “FXa-FVIIa EC50” value was determined as 32.2 nM. Further, the dissociation constant Kd in assay [6] worked out at 9.89 nM; in assay [7], 1.46 nM; in assay [8] it was 9.89 nM.
